According to US20240150797A1, “BIOCATALYTICAL PRODUCTION OF DIHYDROCHALCONES” (Symrise AG, priority 2021, published 2024):

Legend:
Assay type in all cases: biochemical
Conditions in all cases: purified CHI in 50 mM PBS, 100 μM substrate, 25° C.
[1] = Specific activity of purified CHI, absorbance decrease at 384 nm, eriodictyol chalcone
Method: (§1) E. coli BL21 (DE3) cells containing one of the pET28b plasmids from Table 2 or Table 3 were used to inoculate 1 L LB medium at OD of 0.1. Cells were incubated at 37° C., 250 rpm until the OD reached 0.4-0.6 and induced by supplementing with 0.1 mM IPTG. After protein expression at 28° C., 250 rpm for 16 h, the cells were harvested by centrifugation at 4,000×g for 15 min. The harvested cells were lysed with 0.5 mg/mL lysozyme (Sigma-Aldrich), 0.4 U/mL Benzonase (Sigma-Aldrich) and BugBuster (Merck) at room temperature for 0.5 h to obtain a crude cell extract. The crude extract was centrifuged at 10,000×g for 30 min to remove the pellet. Recombinant proteins were purified by Ni-affinity chromatography (GE Healthcare). The supernatant of the crude extract was loaded on the column with 20 mM imidazole. The column was washed by 5 column volumes of 30 mM imidazole with 20 mM PBS (pH 7.4) and 500 mM NaCl. The target proteins were eluted by 150 mM imidazole with 20 mM PBS (pH 7.4) and 500 mM NaCl. Buffer exchange with 50 mM PBS (pH 7.5) was achieved by ultrafiltration with Amicon Ultra-15 (Merck). The activity of the respective purified enzyme was determined by measuring the absorbance decrease at 384 nm in the reaction mix (CHI in 50 mM PBS with 100 μM of either naringenin chalcone, hesperetin chalcone, eriodictyol chalcone, homoeriodictyol chalcone or 4-O-methyl butein at 25° C.).

[2] = Specific activity of purified CHI, absorbance decrease at 384 nm, homoeriodictyol chalcone
Method: as §1

[3] = Specific activity of purified CHI, absorbance decrease at 384 nm, naringenin chalcone
Method: as §1

[4] = Specific activity of purified CHI, absorbance decrease at 384 nm, 4-O-methyl butein
Method: as §1

[5] = Specific activity of purified CHI, absorbance decrease at 384 nm, hesperetin chalcone
Method: as §1

| Molecule | Specific activity, Eriodictyol chalcone [1] | Specific activity, Homoeriodctiol chalcone [2] | Specific activity, Naringenin chalcone [3] | Specific activity, 4-O-methyl butein [4] | Specific activity, Hesperetin chalcone [5] |
| --- | --- | --- | --- | --- | --- |
| CHI9: Chalcone isomerase from Roseburia sp. OM02-15, access no. WP_118702262.1 (protein, Roseburia sp. OM02-15) GEITYQPLRSLIYVDCVKEEYRHKLQHWLYYYHAPESIAKFEPWVTKYAFYNALPTPPQGERFGTYRMQLTEHYWMVNPMSQESLVNSLNEYFPIDAMIWQGTLPENAKEDGFMADGEAARASGGDNGCPPFIFAFLPIFWEQDLKGAGRTMVDGPNYRWQFLVSYPEGHKEDGDQWMMNEVLPAFAAMPEVTRMMTSKVKKEINNCHMDRCVEMWFDGPEEWYHCAVENAASFKKPEWAEYDNFPYLRPQFQFASLFLTDIATSDNLKQYRGYLPMR | 69.7 | 10.4 | 22.7 | 0.4 | 43.0 |
| CHI6: Chalcone isomerase from Lachnoclostridium sp., access no. HCD45524.1 (protein, listed as Lachnoclostridium sp.) GTEFDPMRSFIYVDVIKEEYRHKLQHWLYFHHIPESISQFEPYCTKYAFYNALPVPEGGERFGTARMQITEHSWLVNIMDPALKVKAFQEYMPIEALKWQGTVPETAGDVLMSGDDARCTGGNNGCMPFVFAFCPMWWEEDVKGAGRTLTEGANYRWNFALTYPEGISKEEGDKWLFEEVFPYFEANNCCTRILTSKVRQEINGCPMYRVVEMWFTGPTAWHHLAVETADKIKSPSWAKDGDVFPYLKSGFEIRGAFVTDYPTCDAYSQYRGYIPRR | 17.0 | 8.1 | 16.8 | 0.1 | 3.3 |
| CHI1: Chalcone isomerase from Fusibacter sp. 3D3, access no. WP_069876268.1 (protein, Fusibacter sp. 3D3) SYVPEFKPMRSFILNNVRSDNDRPKAFRWLYKQHVPESISQFRPYCTKYATYHALPLVEGAEQFGTYNWIMTEHYWNFNIFQDKGLGHSRGLAFTEAYPHDFMEITCQPPSNTLRQSGWQGSAEGYHPIVFCFAPIFWENDFKGSERLTDDGANFRWLFFLSYPEGVTVEEGDQWFLETFAKEAAEMPEVIRFLSSRVMDSPRINPFDRIVELWFDDSEAWHNAMVKNGHLFTKPAWSKVDQFPFFEAYKDITGVFIMDRPDSDHLAQWQGYITTR | 18.2 | 11.3 | 21.3 | 0.2 | 16.7 |
| CHI5: Chalcone isomerase from Parasporobacterium paucivorans, access no. WP_073993359.1 (protein, Parasporobacterium paucivorans) GPEFQPMRSLIYVDCVKEEYRHRLQNWLYHYHVPDSISQFAPYVSKYCFYNALPTPPEGERFGTIRQQLTEHYWMVNPFTEHFKNKALTEYFPCDVLKWQGNIPDDDLEVNFEGDEARSKGGHNGCAPFIFAFLPLCWEEDFKGKERTIENGPNYRWNFVMKYPEGTSMEEGDKWFYEKMIPAFQEMPEVTRILTSKVIQSINGCAFHRVVEMWFDGPNAWYQAAVVKAKNIEKPSWASVDAFPYLQATFEFDGIFLTDYAASDNMSQYRGYLAMR | 82.7 | 19.7 | 59.9 | 0.4 | 84.5 |
| CHIera: Chalcone isomerase from Eubacterium ramulus (protein, listed as Eubacterium ramulus) ADFKFEPMRSLIYVDCVSEDYRPKLQRWIYKVHIPDSISQFEPYVTKYAFYPSFPIPPQGDRFGYARMQLTEHHWLVSDLDPRLEIKAIAETFPMDVLVWQGQIPAAAHTDAQIDSDGDAGNAARKSNNAEGNPFIFAFLPMWWEKDLKGKGRTIEDGANYRFNMTIGFPEGVDKAEGEKWLFEKVVPILQAAPECTRVLASAVKKDINGCVMDWVLEIWFENQSGWYKVMVDDMKALEKPSWAQQDAFPFLKPYHNVCSAAVADYTPSNNLANYRGYITMR | 90.7 | 44.5 | 270.0 | 0.1 | 31.5 |
| CHI12: Chalcone isomerase from Holophaga foetida, access no. WP_005036737.1 (protein, listed as Holophaga foetida) TVEFCPMRSLIYVGLSKEKYRHLLQNWLYRIHIPDSISQFGPYVTKYAFYNALPVPPEGERFGTIKMQLTEHYWQCNPFQQAVAVKTFKEVFPIDVLRWQGNMPDESDGAVELEGDEARSAKGGQGAKPFIFAFVPLWWEEDIKGKMRTIADGPNYRWQFVMKYPEGVSQEQGDKWFLEEVAPAFAAMPEVNRILSSKIIQNVNGCSFNRVVEMWFDGPDEWYAAAVTKAAALPKPTWAKQDKFPFLASDYEFASVFLTDYATSDNLSQYRGYITLR | 28.2 |  | 32.4 | 0.2 | 36.5 |
| CHIera Mut1: Chalcone isomerase variant 1 from Eubacterium ramulus, genetically engineered (protein, listed as Eubacterium ramulus) MADFKFEPMRSLIYVDCVSEDYRPKLQRWIYKVHIPDSISKFEPYVTKYAFYPSFPIPPQGDRFGYARMQLTEHHWLVSELDPRLEINAIAETFPMDVLVWQGQIPAAAHTDAQIDSDGDAGRAAGKSNNAEGNPFIFAFLPMWWEKDLKGKGRTIEDGANYRFNMTIGFPEGVDKAEGEKWLFEKVVPILQAAPECTRVLASAVKKDINGCVMDWVLEIWFENQSGWYKVMVDDMKALEKPSWAQQDAFPFLKPYHNVCSAAVADYTPSNNLANYRGYITMR | 59.5 | 23.7 | 32.6 | 0.4 | 93.2 |
| CHI8: Chalcone isomerase from Roseburia sp., access no. SCJ10619.1 (protein, listed as Roseburia sp.) RSLIYVDVAKEQYRVKLNHWLYAVHVPESISKFRPYVSQYAFYNALPVPPLGEQFGTVRMQLTEHYWQVNPMDVSMAVNVFTETFPTEVLIWQGNMPENAIALNYEGDEARSAKVENCNPFVFAFLPISWEEDLKGAGRTMADGPNYRWNFALHYPDGVSVETGDQWFYEKFVPAFLEIPEATRMVTSKIIKEINDCPMDRVVEIWFEGPDQWSAAMEKAKSIEPPEWAQEETFPYLKPYQNIMGVFVADNISSDNLNNHRGYITMR | 33.9 | 22.8 | 73.5 | 1.2 | 19.2 |
| CHI4: Chalcone isomerase from Acetoanaerobium noterae, access no. WP_079589066.1 (protein, listed as Acetoanaerobium noterae) ADFEFNPMRSLIYVDVVKEDYRHMLKHWLYRHHIPDSISQFGPYVTKYAFYPALPTPPEGDRFGTIRMQLTEHYWTVNPFTSNFKNKAFTEFFPIDILKWQGNIPDDSKVAALEGEEVVKLEGDDARASGGDNGCPPFIFAFVPICWEEDFKGSQRTVEDGPNYRWQFVMKYPEGVTMKEGDKWFYEEMIPKFKDMPDVLRILSSKIIQQVNGCPYHRVVEMWFNCPSAWYRSAVEKAKEIKKPSWAKYDVFPYLKPKFEIASLFLTDIAESDNYSQYRGYITMR | 34.4 | 15.2 | 46.6 | 0.4 | 58.5 |
| CHI2: Chalcone isomerase from Tepidanaerobacter acetatoxydans, access no. WP_013779275.1 (protein, Tepidanaerobacter acetatoxydans) DTEFKPMRSLIYVGVAKEEYRHKLKNWLYRYHIPDSISQFAPYVTKYAFYNALPVPPEGERFGAYNMQLTEHYWLINPMNPQLKIKAFTEFFPVDVLKWQGNIPDDADADSVNIEGDAARSSGGDNGMPPFIFAFIPFWWEEDFKGAGRTVEDGPNYRWQFLIQYPNGISLEEGDQWFYKKLVPAFKEMPEVNRFLTSRVIRDVNDCQFHRVIEMWFDGPEEWYRAAVEKGKSIERPHWATAEEFPYLKPKFQIASLFLTDIADSDNYSQYRGYITMR | 25.4 | 19.9 | 54.8 | 0.8 | 93.5 |
